Assays:
[1] = tested on: P. aeruginosa 6077 (exoU+); test: Rabbit red blood cell lysis inhibition assay with strain 6077; assay type: cell-based, Pseudomonas aeruginosa; conditions: strain 6077; FIG. 12D-E
Procedure: Percent inhibition of cytotoxicity analysis was analysed for the parental V2L2 mAb, mAb166 (positive control) and R347 (negative control), where the antibodies were administered to cultured broncho-epithelial cell line A549 combined with log-phase P. aeruginosa strain 6077 (exoU+) at a MOI of approximately 10. A549 lysis was assayed by measuring released lactate dehydrogenase (LDH) activity and lysis in the presence of mAbs was compared to wells without mAb to determine percent inhibition. The V2L2 mAb, mAb166 (positive control) and R347 (negative control) were evaluated for their ability to prevent lysis of RBCs, where the antibodies were mixed with log-phase P. aeruginosa 6077 (exoU^+) and washed rabbit red blood cells (RBCs) and incubated for 2 hours at 37°. Intact RBCs were pelleted and the extent of lysis determined by measuring the OD405 of the cell-free supernatant. Lysis in the presence of anti-PcrV mAbs was compared to wells without mAb to determine percent inhibition.

[2] = tested on: P. aeruginosa 6077 (O11-cytotoxic); test: Corneal infection (keratitis) model in mice, strain 6077; assay type: in vivo, Pseudomonas aeruginosa; conditions: C3H/HeN mice, IP dosing 16 hours prior to 6077 (1×10^6 CFU), FIG. 8H
Procedure: (§1) Antibodies or PBS were administered 24 hours before infection in each model. P. aeruginosa acute pneumonia, keratitis, and thermal injury infection models were performed as described (DiGiandomenico, A., et al., Proc Natl Acad Sci USA 104, 4624-4629 (2007)), with modifications. In the acute pneumonia model, BALB/c mice (The Jackson Laboratory) were infected with P. aeruginosa strains suspended in a 0.05 ml inoculum. In the thermal injury model, CF-1 mice (Charles River) received a 10% total body surface area burn with a metal brand heated to 92° C. for 10 seconds. Animals were infected subcutaneously with P. aeruginosa strain 6077 at the indicated dose. For organ burden experiments, acute pneumonia was induced in mice followed by harvesting of lungs, spleens, and kidneys 24 hours post-infection for determination of CFU.
Cam-003 and WapR-004 efficacy was next evaluated in a P. aeruginosa corneal infection model which emphasizes the pathogens ability to attach and colonize damaged tissue. […] FIG. 8 (H): The activity of anti-Psl and anti-PcrV monoclonal antibodies V2L2 was tested in a P. aeruginosa mouse ocular keratitis model. C3H/HeN mice were injected intraperitoneally (IP) with PBS or a control IgG1 antibody (R347) at 45 mg/kg or WapR-004 (α-Psl) at 5 mg/kg or V2L2 (α-PcrV) at 5 mg/kg, 16 hours prior to infection with 6077 (O11-cytotoxic−1×10^6 CFU) Immediately before infection, mice were anesthetized followed by initiation of three 1 mm scratches on the cornea and superficial stroma of one eye of each mouse using a 27-gauge needle under a dissection microscope, followed by topical application of P. aeruginosa 6077 strain in a 5 μl inoculum. Eyes were photographed at 48 hours post infection followed by corneal grading by visualization of eyes under a dissection microscope. Grading of corneal infection was performed as previously described by Preston et al. (Preston, M J., 1995, Infect. Immun. 63:3497). Briefly, infected eyes were graded 48 h after infection with strain 6077 by an investigator who was unaware of the animal treatments. The following grading scheme was used: grade 0, eye macroscopically identical to an uninfected eye; grade 1, faint opacity partially covering the pupil; grade 2, dense opacity covering the pupil; grade 3, dense opacity covering the entire pupil; grade 4, perforation of the cornea (shrinkage of the eyeball).

P. aeruginosa 6294 (O6) = test: Acute pneumonia model in mice, strain 6294; assay type: in vivo, Pseudomonas aeruginosa
Procedure: as §1

[3] = tested on: P. aeruginosa 6206 (O11-ExoU+); test: Acute pneumonia model in mice, strain 6206; assay type: in vivo, Pseudomonas aeruginosa; conditions: 6206; W4-RAD 0.2 mg/kg; monitored 120 hours; FIG. 21A
Procedure: as §1

[4] = tested on: P. aeruginosa serogroup 05 strain (PAO1.lux); test: Opsonophagocytic killing (OPK) assay with luminescent PAO1.lux, HL-60 cells and baby rabbit serum; assay type: cell-based, Pseudomonas aeruginosa; conditions: FIG. 10C, 11N-Q
Procedure: This example describes the evaluation of prioritized human IgG1 antibodies to promote OPK of P. aeruginosa. […] OPK assays were performed as described in (DiGiandomenico, A., et al., Infect Immun 72, 7012-7021 (2004)), with modifications. Briefly, assays were performed in 96-well plates using 0.025 ml of each OPK component; P. aeruginosa strains; diluted baby rabbit serum; differentiated HL-60 cells; and monoclonal antibody. In some OPK assays, luminescent P. aeruginosa strains, which were constructed as described (Choi, K. H., et al., Nat Methods 2, 443-448 (2005))., were used. Luminescent OPK assays were performed as described above but with determination of relative luciferase units (RLUs) using a Perkin Elmer ENVISION Multilabel plate reader (Perkin Elmer).

B1: V2L2-GL: V2L2-germlined mAb (antibody, V domains shown)
VH: EVQLLESGGGLVQPGGSLRLSCAASGFTFSSYAMNWVRQAPGKGLEWVSAITISGITAYYTDSVKGRFTISRDNSKNTLYLQMNSLRAEDTAVYYCAKEEFLPGTHYYYGMDVWGQGTTVTVSS
VL: AIQMTQSPSSLSASVGDRVTITCRASQGIRNDLGWYQQKPGKAPKLVIYSASTLQSGVPSRFSGSGSGTDFTLSISSLQPDDFATYYCLQDYNYPWTFGQGTKVEIK
modifications: V2L2-GL VH; V2L2-MD and V2L2-GL VL
notes: V2L2-germlined mAb
prevention of RBC lysis [1]: demonstrated prevention of RBC lysis

B2: WapR-004RAD: identical to WapR-004 except for substitution G98A of the VH; VH SEQ ID NO: 74, VL SEQ ID NO: 12 (antibody, V domains shown)
VH: EVQLLESGPGLVKPSETLSLTCNVAGGSISPYYWTWIRQPPGKGLELIGYIHSSGYTDYNPSLKSRVTISGDTSKKQFSLHVSSVTAADTAVYFCARADWDLLHALDIWGQGTLVTVSS
VL: EIVLTQSPSSLSTSVGDRVTITCRASQSIRSHLNWYQQKPGKAPKLLIYGASNLQSGVPSRFSGSGSGTDFTLTISSLQPEDFATYYCQQSYSFPLTFGGGTKLEIK
modifications: WapR-004RAD VH; WapR-004 & WarR-004RAD VL
bacterial CFU in total eye homogenates compared to R347 control [2]: reduced bacterial colony forming units (CFU) in total eye homogenates
corneal pathology compared to R347 control ([2]; graded 48 h after infection): significantly less pathology
organ burden in lung, spleen and kidney (P. aeruginosa 6294 (O6); 2.5×10^7 CFU 6294, Bs2-/Bs3-V2L2 0.7 mg/kg, V2L2 or W4-RAD 0.5 mg/kg, FIG. 23A): no effect on decreasing organ burden
survival effect, in words (P. aeruginosa 6294 (O6); 6294, bispecifics 0.28 mg/kg, V2L2 or W4-RAD 0.2 mg/kg, FIG. 24): did not affect survival
animals survived [3]: Approximately 90%

B3: Psl0588: lead optimized anti-Psl clone; VH SEQ ID NO:292, VL SEQ ID NO:293 (antibody, V domains shown)
VH: QVQLQESGPGLVKPSETLSLTCTVSGGSISPYYWTWIRQPPGKGLELIGYIHSSGYTDYNPSLKSRVTISGDTSKKQFSLKLSSVTAADTAVYYCARADDPFPGYLDIWGQGTMVTVSS
VL: DIQLTQSPSSLSASVGDRVTITCRASQSIRSHLNWYQQKPGKAPKLLIYGASNLQSGVPSRFSGSGSGTDFTLTISSLQPEDFATYYCQQSDTFPLKFGGGTKVEIK
modifications: Psl0588-Germline VH
OPK activity of lead optimized anti-Psl clones (basis of selection) [4]: enhanced OPK activity

B4: Psl0225: lead optimized anti-Psl clone; VH SEQ ID NO:290, VL SEQ ID NO:291 (antibody, V domains shown)
VH: QVQLQESGPGLVKPSETLSLTCTVSGGSISPYYWTWIRQPPGKGLELIGYIHSSGYTDYNPSLKSRVTISGDTSKKQFSLKLSSVTAADTAVYYCARAMDIEPHALDIWGQGTMVTVSS
VL: DIQLTQSPSSLSASVGDRVTITCRASQSIRSHLNWYQQKPGKAPKLLIYGASNLQSGVPSRFSGSGSGTDFTLTISSLQPEDFATYYCQQSDDGFPNFGGGTKVEIK
modifications: Psl0225-Germline VH; Psl0225-Germline VL
OPK activity of lead optimized anti-Psl clones (basis of selection) [4]: enhanced OPK activity

B5: Psl0337: lead optimized anti-Psl clone; VH SEQ ID NO:295, VL SEQ ID NO:296 (antibody, V domains shown)
VH: QVQLQESGPGLVKPSETLSLTCTVSGGSISPYYWTWIRQPPGKGLELIGYIHSSGYTDYNPSLKSRVTISGDTSKKQFSLKLSSVTAADTAVYYCARADWDHKHALDIWGQGTMVTVSS
VL: DIQLTQSPSSLSASVGDRVTITCRASQSIRSHLNWYQQKPGKAPKLLIYGASNLQSGVPSRFSGSGSGTDFTLTISSLQPEDFATYYCQDSSSWPLTFGGGTKVEIK
modifications: Psl0337-Germline VH; Psl0337-Germline VL
OPK activity of lead optimized anti-Psl clones (basis of selection) [4]: enhanced OPK activity
